# In patent publication US8414892:
# Experiments:
# [1] = biological target: HLA class I (HLA A, B, C) (human); assay: indirect immunofluorescence
# [2] = biological target: HLA class I (HLA A, B, C) (human); assay: indirect immunofluorescence, U2OS cells recultured at 37 C after antibody binding
# [3] = biological target: HLA class I (HLA A, B, C) (human); assay: indirect immunofluorescence, U2OS cells
# monoclonal antibody 8H9 [4] = assay: FACS inhibition, 5 ug/ml 8H9 on HTB-82 cells
# [5] = biological target: 8H9 scFv-human gamma1-CH2-CH3 chimeric antibody (human); assay: FACS inhibition, 5 ug/ml 8H9-scFv-Fc on HTB82 cells
# MoAb 3F8 = assay: ELISA, MoAb coated
# UJ 13A = assay: ELISA, MoAb coated
# MOPC 104E = assay: ELISA, MoAb coated
# HOPC-1 = assay: ELISA, MoAb coated
# MOPC 315 = assay: ELISA, MoAb coated
# MoAb R24 = assay: ELISA, MoAb coated
# TIB114 = assay: ELISA, MoAb coated
# FCOPC21 = assay: ELISA, MoAb coated
# MOPC 21 = assay: ELISA, MoAb coated
# monoclonal antibody 8H9 [6] = assay: ELISA, MoAb coated; ++ = OD 1~2
# monoclonal antibody 8H9 [7] = assay: FACS inhibition, 5 ug/ml 8H9 on LAN-1 cells
# Chain of monoclonal antibody 8H9 (VH, as listed by the source limits assumed, chain 1 of 2): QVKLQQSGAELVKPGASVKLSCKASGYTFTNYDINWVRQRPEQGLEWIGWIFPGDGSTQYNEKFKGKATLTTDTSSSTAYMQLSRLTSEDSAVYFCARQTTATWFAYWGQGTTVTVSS
# Chain of monoclonal antibody 8H9 (VL, as listed by the source limits assumed, chain 2 of 2): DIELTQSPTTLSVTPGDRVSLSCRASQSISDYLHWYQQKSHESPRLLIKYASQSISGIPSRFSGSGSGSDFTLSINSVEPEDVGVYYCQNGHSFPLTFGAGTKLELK
loss of binding after 48 h at 37 C [1],relative immunofluorescence remaining after 48 h [2],loss of binding after 48 h at 37 C [3],concentration of 2E9 giving complete inhibition of 8H9 staining (monoclonal antibody 8H9 [4]),concentration of 2E9 without inhibition of 8H9 staining (monoclonal antibody 8H9 [4]),concentration of 2E9 giving complete inhibition of 8H9-scFv-Fc staining [5],OD (MoAb 3F8),OD (UJ 13A),OD (MOPC 104E),OD (HOPC-1),OD (MOPC 315),OD (MoAb R24),OD (TIB114),OD (FCOPC21),OD (MOPC 21),OD (monoclonal antibody 8H9 [6]),concentration of 2E9 giving almost complete inhibition of 8H9 staining (monoclonal antibody 8H9 [7]),concentration of 2E9 without inhibition of 8H9 staining (monoclonal antibody 8H9 [7]),Substance
85%,11%,89%,,,,,,,,,,,,,,,,"anti-HLA A, B, C antibody HB-95"
,,,10 µg/mL,2 µg/mL,1 µg/mL,< 0.5 od,< 0.5 od,< 0.5 od,< 0.5 od,< 0.5 od,< 0.5 od,< 0.5 od,< 0.5 od,< 0.5 od,1 to 2 od,10 µg/mL,2 µg/mL,rat anti-8H9 anti-idiotypic monoclonal antibody 2E9
